Test results: paper PMC12646662

Key:
[1] = biological target: GSDMA; assay: Flag IP with mass spectrometry (LFQ); conditions: SK-Mel-28 cells; read off a plot
[2] = biological target: E-cadherin, endogenous in SK-Mel-28 cells; assay: Flag IP with mass spectrometry (LFQ); conditions: read off a plot

- log10 ratio [1]: 2.2
- log10 ratio [2]: -2.5
Substance: Flag-CTNND1 WT, stably expressed in SK-Mel-28 cells (from UniProt O60716) C618S
